Patent publication US12077763B2, “RNA-based control of powdery mildew” (Greenlight Biosciences, Inc., priority 2021, dated 2024)

System: E. necator
Test: Leaf disc assay, dry inoculum (settling tower), decrease in disease severity / hyphal growth (Example 2)
Settings: decrease in disease severity (hyphal growth) relative to untreated control, value ± SE; for % decrease =/− SE TP1: time point 1 (untreated control hyphal growth ≥50%); for % decrease =/− SE TP2: time point 2

B1: GS3446 (nucleic acid)
sense: ACCCGCAGGUACUCUUAUGCUUGGAGCUGAAGGUAUUAAAGAUGCCAUAACUGGCUUCGAAGAUGCUCGUAAAGUAGAUUUAAAGAAUGAAAGAUUGCCUCCAAGUCUUGAGGAAAUUACACGAACAAGUGAAGAGGAUAGAGCUCUGGCAUUAGAGAGGGCUAAGGAAAGUGCGGAUAAUGAUCGAGGGCUUCAGAUUUUAUCUAGAAGACUCAGUUUAGUUGGCACUCAACCAAAUAGACCGCAACCGAGUAAAAUUCUGAACUCUGUUCUAGCCCUCGAUAAAGAUGUUUCUGAGAAAUAAGAGGUCGAUCAGAGUCACCUCCUGUUACAAGCUCAUUGGUUGGUCUGCAGGUACAGAAUUACUAAUCAUACCACGA
antisense: UCGUGGUAUGAUUAGUAAUUCUGUACCUGCAGACCAACCAAUGAGCUUGUAACAGGAGGUGACUCUGAUCGACCUCUUAUUUCUCAGAAACAUCUUUAUCGAGGGCUAGAACAGAGUUCAGAAUUUUACUCGGUUGCGGUCUAUUUGGUUGAGUGCCAACUAAACUGAGUCUUCUAGAUAAAAUCUGAAGCCCUCGAUCAUUAUCCGCACUUUCCUUAGCCCUCUCUAAUGCCAGAGCUCUAUCCUCUUCACUUGUUCGUGUAAUUUCCUCAAGACUUGGAGGCAAUCUUUCAUUCUUUAAAUCUACUUUACGAGCAUCUUCGAAGCCAGUUAUGGCAUCUUUAAUACCUUCAGCUCCAAGCAUAAGAGUACCUGCGGGU
% decrease =/− SE TP1: 36 ± 3%

B2: GS1800: dsRNA trigger SEQ ID NO 137; gene target Protein BOB1 (nucleic acid)
DNA: ATCAGTCTGACTGCTATACTCACTACCAGAGTCACTGATTACCTGTCTGTCTCTATCGACAATTCCATGAGGTGATTTTAAATGAGTGATATGTTCGTCAATGACACTTAGAGTTTCATTCATTACAGGGCTATCTTGACGATGATTCTTAATATTAACAGACGAGATACTTTTTGATTGAATCGTTGTTTCAGGACTAGTAATCGTTAAGTTTGACGGAGCCTTGATACCCCGGGGCCCAAGAGTTGGTTGTATTTGAGGAGTATCTAACATTTTGAGAGGTTCTGATGGCAAGGAGACCGTATTTTCACCAGAAAAAGGAGTTTGTGGAGAAACTGTGTTGCTAGTTTTCCTTATTTTGGAATGGGAATTTTGAATGGACGATGATGCTGGCGAGCATATTAAAGATCCTCGGGGAGCTATACGTGTGTATACTTCTGGGAAGAGGCCACTCTTTCCATTTAGCAGATGACGGCCTAAAAACCATCCGTCCCCAAAATCATCATCACGTTCTATCAACTCAACGCGATCTCCTTTGGACAAGCTCAACTCATCTGAGCTACGAGCTGAGAAATCATGAACTACAAGCAAAATATGA
% decrease =/− SE TP1: 22 ± 6%
% decrease =/− SE TP2: 25 ± 8%

B3: GS3447 (nucleic acid)
sense: CAACAGCUUGAAUUGCACGGAAUUAUCACUAUCAUCCCGACUAAGCCUCUCAAAAAGCAAAAUUUAUUUGCUAGCUCGGAAAAGAUAACAGCUAGCUACGCAAAAGCUAUUCAAGAUGGUUGUUGGCAUUCAUUUUCGCCAAACUCUCAGAAAAGCUGCAACAAAUCCCCGUCAUAUAGAAAACAACUCUAAUCAGCCAGAAACUAUGUUGUCCGGAGAAAAUAUUGGGUUACUUACGGGGCGAACAUCAAACGCCCGCAAAAGUGCGUGGCGACAAAUUUACGAUGUACUCGGAAGCAAACAUUAUUCAGCCGGAAAAGAUAGUGAUAGUAAAAUUGUACGAGCUAUAGCGCCAACUAUUCAGAUUACAAAAAUUACGUUAUACAGUAAUUAUGUC
antisense: GACAUAAUUACUGUAUAACGUAAUUUUUGUAAUCUGAAUAGUUGGCGCUAUAGCUCGUACAAUUUUACUAUCACUAUCUUUUCCGGCUGAAUAAUGUUUGCUUCCGAGUACAUCGUAAAUUUGUCGCCACGCACUUUUGCGGGCGUUUGAUGUUCGCCCCGUAAGUAACCCAAUAUUUUCUCCGGACAACAUAGUUUCUGGCUGAUUAGAGUUGUUUUCUAUAUGACGGGGAUUUGUUGCAGCUUUUCUGAGAGUUUGGCGAAAAUGAAUGCCAACAACCAUCUUGAAUAGCUUUUGCGUAGCUAGCUGUUAUCUUUUCCGAGCUAGCAAAUAAAUUUUGCUUUUUGAGAGGCUUAGUCGGGAUGAUAGUGAUAAUUCCGUGCAAUUCAAGCUGUUG
% decrease =/− SE TP1: 35 ± 3%

B4: GS3454 (nucleic acid)
sense: GCUCUUCUCAAUGGAUCCCAAGAUGAUCUAAAUAGAAUCGCAGAACACUUUAAGUUGACAAAGUUGAAAGAGCUCUAUGAAAAACAAUGUCAAGUUUUAAAAAGAUUUGAUAGACCCAAUCCUUCUGUUCCAAUAGCCAUAGCACAUUUAUAUCCUCCAGGCCCUAUAAAUCCACAUUACUCAGCAGCUAUGGCACGAGAAGCUGAGAAAAAAAAUUCAAACCCUCUUAAAAACACUGCAACACAAACUAGUUCUAAGGAGGUUGGCUUAAGUACCAUUAGUAAUAAAAAUUCUCUUAUAAAUUCGAGGCGCUCAAAAGGACAAGAUAUGCCAACUCAGGCUAGCAGUUUGGCAGAAAAAUUUAGUCAAAGUAUGAUGGAUCAGGAGCUUGAUGAUGA
antisense: UCAUCAUCAAGCUCCUGAUCCAUCAUACUUUGACUAAAUUUUUCUGCCAAACUGCUAGCCUGAGUUGGCAUAUCUUGUCCUUUUGAGCGCCUCGAAUUUAUAAGAGAAUUUUUAUUACUAAUGGUACUUAAGCCAACCUCCUUAGAACUAGUUUGUGUUGCAGUGUUUUUAAGAGGGUUUGAAUUUUUUUUCUCAGCUUCUCGUGCCAUAGCUGCUGAGUAAUGUGGAUUUAUAGGGCCUGGAGGAUAUAAAUGUGCUAUGGCUAUUGGAACAGAAGGAUUGGGUCUAUCAAAUCUUUUUAAAACUUGACAUUGUUUUUCAUAGAGCUCUUUCAACUUUGUCAACUUAAAGUGUUCUGCGAUUCUAUUUAGAUCAUCUUGGGAUCCAUUGAGAAGAGC
% decrease =/− SE TP1: 4 ± 4%
% decrease =/− SE TP2: 0 ± 9%

B5: GS3448 (nucleic acid)
sense: GAAGAUACAAAUUUAUGCGCUAUUCAUGCUAAACGUGUUACUAUAAUGCAAAAAGACAUUCAGCUUGCAAGGCGAAUCAGAGGGGUUUGGGGUGGUUUAGGCUAGCUUUUUUAUUCUAAAUAUACCAGUGCCCGAAUUUGAUCUCCCUAAGCCACACCAUCGAGUUGAAAUGAUGAGAGGAAGAUGACGAGAAUAAAAUUAUUGUGAAUAUUCGUUAUAUGGAUAAGCGUAGAGGGGAUCUAAUACUUGUGAAUUGGUAAUCUUGAGUUAUCACUUUUUCUGGCGCAUCCAGCGACCCUAAGCAUAUGGACACUAGUGAUUGCGUCUUAGGGUUAUAGUAGCCAAGAGGAAUUUGAAGCACACAUAUUAGCACAGCAUAAUAAUAAAUAA
antisense: UUAUUUAUUAUUAUGCUGUGCUAAUAUGUGUGCUUCAAAUUCCUCUUGGCUACUAUAACCCUAAGACGCAAUCACUAGUGUCCAUAUGCUUAGGGUCGCUGGAUGCGCCAGAAAAAGUGAUAACUCAAGAUUACCAAUUCACAAGUAUUAGAUCCCCUCUACGCUUAUCCAUAUAACGAAUAUUCACAAUAAUUUUAUUCUCGUCAUCUUCCUCUCAUCAUUUCAACUCGAUGGUGUGGCUUAGGGAGAUCAAAUUCGGGCACUGGUAUAUUUAGAAUAAAAAAGCUAGCCUAAACCACCCCAAACCCCUCUGAUUCGCCUUGCAAGCUGAAUGUCUUUUUGCAUUAUAGUAACACGUUUAGCAUGAAUAGCGCAUAAAUUUGUAUCUUC
% decrease =/− SE TP1: 19 ± 3%
